Reference: patent US20110159009A1 (published 2011)

Key:
B20.4.1 [1] = assay: SPR (BIAcore); FIG. 10; 37 C; ~60 RU VEGF immobilized; bivalent model
B20.4.1 [2] = assay: SPR (BIAcore); FIG. 11; 37 C; ~1000 RU VEGF immobilized; 1:1 Langmuir model

B1: hVEGF (ligand)
chain: APMAEGGGQNHHEVVKFMDVYQRSYCHPIETLVDIFQEYPDEIEYIFKPSCVPLMRCGGCCNDEGLECVPTEESNITMQIMRIKPHQGQHIGEMSFLQHNKCECRPKKDRARQENPCGPCSERRKHLFVQDPQTCKCSCKNTDSRCKARQLELNERTCRCDKPRR
Work on B1 yielded a Kd (B20.4.1 [1]) of 0.02 nM and a Kd (B20.4.1 [2]) of 1.16 nM.

B2: mVEGF (ligand)
chain: APTTEGEQKSHEVIKFMDVYQRSYCRPIETLVDIFQEYPDEIEYIFKPSCVPLMRCAGCCNDEALECVPTSESNITMQIMRIKPHQSQHIGEMSFLQHSRCECRPKKDRTKPENHCEPCSERRKHLFVQDPQTCKCSCKNTDSRCKARQLELNERTCRCDKPRR
With B2 the Kd (B20.4.1 [1]) was 0.37 nM and the Kd (B20.4.1 [2]) was 2.26 nM.
